Assay results taken from article PMC9482650, “Quantitative fragmentomics allow affinity mapping of interactomes” (Nature Communications, 2022).
One block for each binder: values may come before it.

Legend:
Assay in all cases: holdup assay
Set-up in all cases: key: below the threshold = too weak to quantify, mostly under pKd 3.1 to 4
[1] = biological target: DLG1_3, Q12959
[2] = biological target: DLG2_2, Q15700
[3] = biological target: T1, RHPN1, Q8TCX5
T1 sequence (Q8TCX5 508-602, limits assumed, looked up): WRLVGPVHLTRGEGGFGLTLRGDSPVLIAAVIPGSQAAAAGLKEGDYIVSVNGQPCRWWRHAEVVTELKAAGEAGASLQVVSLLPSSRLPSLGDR

[4] = biological target: GRIP2_3, Q9C0E4
[5] = biological target: T2, TIAM2, Q8IVF5
T2 sequence (Q8IVF5 885-986, limits assumed, looked up): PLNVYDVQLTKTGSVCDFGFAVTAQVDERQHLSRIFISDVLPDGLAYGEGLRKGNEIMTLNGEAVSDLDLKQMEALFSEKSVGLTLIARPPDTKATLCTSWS

[6] = biological target: T3, DFNB31_3, Q9P202
T3 sequence (Q9P202 811-907, limits assumed, looked up): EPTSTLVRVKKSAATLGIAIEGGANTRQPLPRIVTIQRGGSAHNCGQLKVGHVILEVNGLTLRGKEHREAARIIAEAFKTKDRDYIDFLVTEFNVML

[7] = biological target: PDZRN4_1, Q6ZMN7
[8] = biological target: DLG5_1, Q8TDM6
[9] = biological target: T4, SNTG1, Q9NSN8
T4 sequence (Q9NSN8 52-150, limits assumed, looked up): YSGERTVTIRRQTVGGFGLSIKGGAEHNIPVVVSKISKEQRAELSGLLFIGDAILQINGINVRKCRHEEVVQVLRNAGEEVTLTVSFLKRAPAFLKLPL

[10] = biological target: T5, SNTG2, Q9NY99
T5 sequence (Q9NY99 68-166, limits assumed, looked up): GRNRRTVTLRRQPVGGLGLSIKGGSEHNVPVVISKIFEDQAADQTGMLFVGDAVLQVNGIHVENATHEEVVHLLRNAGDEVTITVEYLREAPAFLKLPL

[11] = biological target: LIMK2, P53671
[12] = biological target: GRIP2_4, Q9C0E4
[13] = biological target: T6, RAPGEF6, Q8TEU7
T6 sequence (Q8TEU7 525-625, limits assumed, looked up): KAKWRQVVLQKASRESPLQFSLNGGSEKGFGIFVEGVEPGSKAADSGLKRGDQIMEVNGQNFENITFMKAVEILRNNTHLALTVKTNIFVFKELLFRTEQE

[14] = biological target: MAGI2_3, Q86UL8
[15] = biological target: Inadl_2, Q8NI35
[16] = biological target: PARD3_3, Q8TEW0
[17] = biological target: T7, ARHGEF11, O15085
T7 sequence (O15085 42-136, limits assumed, looked up): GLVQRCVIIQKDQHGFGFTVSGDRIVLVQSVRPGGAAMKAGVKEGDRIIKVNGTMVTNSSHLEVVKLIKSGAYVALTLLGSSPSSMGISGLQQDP

[18] = biological target: IL16_1, Q14005
[19] = biological target: T8, DVL3, Q92997
T8 sequence (Q92997 244-331, limits assumed, looked up): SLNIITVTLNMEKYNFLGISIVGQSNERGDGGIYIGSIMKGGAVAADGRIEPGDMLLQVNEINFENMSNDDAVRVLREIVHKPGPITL

[20] = biological target: FRMPD2_2, Q68DX3
[21] = biological target: T9, GRIP1_3, Q9Y3R0
T9 sequence (Q9Y3R0 247-346, limits assumed, looked up): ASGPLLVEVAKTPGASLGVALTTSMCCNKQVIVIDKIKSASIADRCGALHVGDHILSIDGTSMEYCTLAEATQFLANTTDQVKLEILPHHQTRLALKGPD

[22] = biological target: HTRA1, Q92743
[23] = biological target: T10, LIN7C, Q9NUP9
T10 sequence (Q9NUP9 88-185, limits assumed, looked up): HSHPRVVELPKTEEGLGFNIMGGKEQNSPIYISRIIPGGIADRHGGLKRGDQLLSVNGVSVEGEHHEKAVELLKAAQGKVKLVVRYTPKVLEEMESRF

[24] = biological target: Inadl_8, Q8NI35
[25] = biological target: T11, DFNB31_1, Q9P202
T11 sequence (Q9P202 135-233, limits assumed, looked up): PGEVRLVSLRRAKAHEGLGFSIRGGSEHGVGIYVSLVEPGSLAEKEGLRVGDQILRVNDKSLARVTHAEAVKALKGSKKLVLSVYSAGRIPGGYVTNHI

[26] = biological target: DLG1_1, Q12959
[27] = biological target: DLG4_2, P78352
[28] = plain residues with an end cap or a label only (N-terminal biotin on a linker: ado-ado)
[29] = plain residues with an end cap or a label only (N-terminal biotin on a linker: ttds)

Chain of FRMPD2_2, Q68DX3 (Q68DX3 944-1038): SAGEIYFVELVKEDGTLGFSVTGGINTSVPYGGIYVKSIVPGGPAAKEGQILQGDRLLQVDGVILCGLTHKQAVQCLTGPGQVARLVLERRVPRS
Chain of DLG4_2, P78352 (P78352 155-259): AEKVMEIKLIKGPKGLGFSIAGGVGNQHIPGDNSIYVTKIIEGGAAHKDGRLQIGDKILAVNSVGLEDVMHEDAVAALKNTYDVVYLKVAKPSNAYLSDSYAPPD
Chain of PARD3_3, Q8TEW0 (Q8TEW0 582-685): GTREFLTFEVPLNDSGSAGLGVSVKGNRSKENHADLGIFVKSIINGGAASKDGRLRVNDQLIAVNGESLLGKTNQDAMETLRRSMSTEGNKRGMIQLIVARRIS
Chain of Inadl_2, Q8NI35 (Q8NI35 238-335): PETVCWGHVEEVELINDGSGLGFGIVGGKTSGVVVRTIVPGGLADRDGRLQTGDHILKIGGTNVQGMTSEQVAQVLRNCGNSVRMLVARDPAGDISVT
Chain of PDZRN4_1, Q6ZMN7 (Q6ZMN7 213-318): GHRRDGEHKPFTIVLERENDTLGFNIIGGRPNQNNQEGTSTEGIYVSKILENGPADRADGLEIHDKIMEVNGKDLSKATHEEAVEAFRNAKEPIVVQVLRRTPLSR
Chain of HTRA1, Q92743 (Q92743 360-477): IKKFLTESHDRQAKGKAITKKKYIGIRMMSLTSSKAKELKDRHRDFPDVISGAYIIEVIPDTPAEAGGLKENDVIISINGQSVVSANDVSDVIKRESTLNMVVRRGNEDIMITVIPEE
Chain of GRIP2_4, Q9C0E4 (Q9C0E4 446-548): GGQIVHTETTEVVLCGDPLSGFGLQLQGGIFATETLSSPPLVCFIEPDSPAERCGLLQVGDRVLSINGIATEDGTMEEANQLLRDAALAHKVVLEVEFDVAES
Chain of DLG5_1, Q8TDM6 (Q8TDM6 617-713): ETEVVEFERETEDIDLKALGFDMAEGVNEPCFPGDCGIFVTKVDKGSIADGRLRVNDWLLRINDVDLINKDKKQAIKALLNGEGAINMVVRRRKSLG
Chain of GRIP2_3, Q9C0E4 (Q9C0E4 238-339): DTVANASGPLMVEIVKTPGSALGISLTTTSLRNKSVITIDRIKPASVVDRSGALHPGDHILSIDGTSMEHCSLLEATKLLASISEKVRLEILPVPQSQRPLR
Chain of DLG2_2, Q15700 (Q15700 189-283): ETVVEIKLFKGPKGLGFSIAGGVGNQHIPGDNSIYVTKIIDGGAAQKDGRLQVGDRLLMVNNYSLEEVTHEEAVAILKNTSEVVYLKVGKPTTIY
Chain of IL16_1, Q14005 (Q14005 210-306): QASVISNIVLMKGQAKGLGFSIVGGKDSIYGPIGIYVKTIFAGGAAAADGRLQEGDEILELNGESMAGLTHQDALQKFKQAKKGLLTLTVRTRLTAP
Chain of MAGI2_3, Q86UL8 (Q86UL8 600-682): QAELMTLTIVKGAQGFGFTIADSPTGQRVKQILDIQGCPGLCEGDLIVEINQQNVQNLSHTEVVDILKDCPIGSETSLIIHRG
Chain of LIMK2, P53671 (P53671 143-248): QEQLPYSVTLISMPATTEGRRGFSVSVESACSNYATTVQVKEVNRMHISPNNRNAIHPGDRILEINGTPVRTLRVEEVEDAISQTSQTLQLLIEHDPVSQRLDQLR
Chain of Inadl_8, Q8NI35 (Q8NI35 1425-1530): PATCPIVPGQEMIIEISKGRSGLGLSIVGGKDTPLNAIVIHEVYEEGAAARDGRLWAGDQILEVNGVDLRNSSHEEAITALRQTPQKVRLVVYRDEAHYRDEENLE

pKd [1, 28]: below the threshold
pKd [2, 28]: below the threshold
pKd [3, 28]: below the threshold
pKd [4, 28]: below the threshold
pKd [5, 28]: below the threshold
pKd [6, 28]: below the threshold
pKd [7, 28]: below the threshold
pKd [8, 28]: below the threshold
pKd [9, 28]: below the threshold
pKd [10, 28]: below the threshold
pKd [11, 28]: below the threshold
pKd [12, 28]: below the threshold
pKd [13, 28]: below the threshold
pKd [14, 28]: below the threshold
pKd [15, 28]: below the threshold
pKd [16, 28]: below the threshold
pKd [17, 28]: below the threshold
pKd [18, 28]: below the threshold
pKd [19, 28]: below the threshold
pKd [20, 28]: below the threshold
pKd [21, 28]: below the threshold
pKd [22, 28]: below the threshold
pKd [23, 28]: below the threshold
pKd [24, 28]: 4.43
pKd [25, 28]: below the threshold
pKd [26, 28]: below the threshold
pKd [27, 28]: 3.49
B1: CBY2, Q8NA61 (peptide)
chain: SQDPKKPSRV

pKd [1, 29]: below the threshold
pKd [2, 29]: below the threshold
pKd [3, 29]: 4.1
pKd [4, 29]: below the threshold
pKd [5, 29]: below the threshold
pKd [6, 29]: below the threshold
pKd [7, 29]: below the threshold
pKd [8, 29]: below the threshold
pKd [9, 29]: 3.49
pKd [10, 29]: below the threshold
pKd [11, 29]: below the threshold
pKd [12, 29]: below the threshold
pKd [13, 29]: 3.48
pKd [14, 29]: below the threshold
pKd [15, 29]: below the threshold
pKd [16, 29]: 4.22
pKd [17, 29]: below the threshold
pKd [18, 29]: below the threshold
pKd [19, 29]: below the threshold
pKd [20, 29]: below the threshold
pKd [21, 29]: below the threshold
pKd [22, 29]: 3.73
pKd [23, 29]: below the threshold
pKd [24, 29]: below the threshold
pKd [25, 29]: below the threshold
pKd [26, 29]: 3.63
pKd [27, 29]: below the threshold
B2: PODXL, O00592 (peptide)
chain: DLDEEEDTHL
